For 1 protein, Km, kcat and kcat/Km results are on record in publication PMC5341072, “Activity screening of environmental metagenomic libraries reveals novel carboxylesterase families” (Scientific Reports, 2017).

What is called Km is the substrate concentration at which the rate is half of its maximum. For orientation: kcat means the maximal rate divided by the concentration of active sites. The kcat/Km is the turnover number divided by the Michaelis constant.

Common to all, as to format: biochemical, uncultured organism
Substrate in data set [1]: O=C1Nc2ccccc2C1=O
Put plainly: amidohydrolase activity, Michaelis-Menten or Hill fit. Conditions: metal-dependent amidohydrolase activity. An excerpt:
amidohydrolase activity, Michaelis-Menten or Hill fit on MGS0169

Substrate in data set [2]: CC(=O)Oc1ccc([N+](=O)[O-])cc1
The data set is described as follows: spectrophotometric ester hydrolysis, Michaelis-Menten or Hill fit. Conditions: metal-dependent; 0.1 mM MnCl2 stated for the Figure 4 and 7 assays. An excerpt:
(§1) spectrophotometric ester hydrolysis, Michaelis-Menten or Hill fit on MGS0169

Substrate in data set [3]: CC(=O)Oc1cccc2ccccc12
Described as above. Conditions: metal-dependent; 0.1 mM MnCl2 stated for the Figure 4 and 7 assays.
Excerpt: as §1

Substrate in data set [4]: CCC(=O)Oc1cccc2ccccc12
Described as above. The conditions noted are these: metal-dependent; 0.1 mM MnCl2 stated for the Figure 4 and 7 assays.
Excerpt: as §1

B1: MGS0169 (uncultured organism) (protein)
chain: MAHAEGPALHPHEKLNNWGKWGDDDQRGAANYITPERIVAAARLIQTGKTFSLAIPIDSNGPVFPPRLPPHHTMEITGADYVADPGASPFGKSPIRFADDYIYMPLQGSTQWDALSHGWYGESLYNGVPEAAIRSSGAGGATKLGIENVKTSFLGRGVLVDIVRFKGGSLPEGYTITRADLEGALAKQKSKLLPGDILVIRTGLVESWYDLDPVGRASFFLNPMTGIGSDTVPWIHEQRLAGVAADNIALERVPHERAPELALPVHGNLLRDLGVYIGEIWWLEELAKDCAQDGRYEFFLAAQPLYIPGAVGSPLNPIAVK
notes: N-terminal 6His tag (modified pET15b), E. coli BL21(DE3), Ni-NTA purified; predicted 37 kDa, tetramer; crystal construct 21-341 aa
Turning to B1, the Km in data set [1] turned out to be 19700 ± 4200 µM; in data set [2] it was 400 ± 290 µM; in data set [3] it was 490 ± 110 µM; in data set [4], 420 ± 120 µM. In addition, the kcat in data set [1] was determined as 1.9 ± 0.2 s⁻¹; in data set [2], 71.2 ± 1.7 s⁻¹; in data set [3], 14.9 ± 1.2 s⁻¹; in data set [4] it was 14.7 ± 1.4 s⁻¹. Also, the kcat/Km in data set [1] came out at 100 M⁻¹ s⁻¹; in data set [2], 180000 M⁻¹ s⁻¹; in data set [3] it was 30000 M⁻¹ s⁻¹; in data set [4], 40000 M⁻¹ s⁻¹.
